Data on 2 molecules can be found in patent US20120100074A1 (Teva, published 2012).

Assay [1] addresses T1, LIGHT expressed on the cell surface (LIGHT transfected cells; activated T-cells) (UniProt O43557 1-240, limits assumed).
T1 construct: whole, on cells
Put plainly: flow cytometry on PMA/ionomycin activated Th1, Th17 and Th2 cells, biotin labeled antibody, streptavidin-PE. How it is done:
FIG. 10B illustrates binding of humanized 5E10 antibody to Th1, Th17 and Th2 activated T-cells compared to controls. Polarized T-cells were activated with PMA/Ionomycin for 24 hr. Biotin labeled LIGHT antibody or control antibody was incubated with cells for 40 minutes at room temperature. After washing twice with PBS, the antibody binding to LIGHT expressed on activated T-cells was determined by flow cytometry using strepavidin conjugated to PE. Dotted lines on figure indicates humanized LIGHT antibody binding. Solid fill indicates control antibody binding.
This example describes an assay protocol to determine LIGHT antibody binding to LIGHT expressed on surface of activated T-cells by Flow cytometry. Polarized Th1, Th2 and Th17 cells were activated with 50 ng/mL PMA and 0.5 μg/mL lonomycin overnight at 37° C. One million activated T-cells were transferred to 5 mL FACS tubes and centrifuged at 1200 rpm for 5 minutes. The cellet pellet was resuspended in FACS staining buffer and incubated with anti-LIGHT or control antibodies at room temperature for 40 minutes. After washing twice with 2 mL PBS, the cells were incubated with PE-conjugated secondary reagents for 1 hour. The cells were washed 3 times with 2 mL PBS and resuspended in 0.5 mL PBS and analyzed by flow cytometry.

Assay [2] has as its target T2, LIGHT (TNFSF14), recombinant soluble protein (human, UniProt O43557 83-240, limits assumed).
T2 construct: The immunogen was the extracellular domain fragment (Leu Ile Glu to Phe Met Val of AF036581); also called TL5; LIGHT/TL5
The assay is described as follows: BiaCore (SPR). In general terms: SPR reads the build-up and loss of mass on a sensor chip optically.

The target of assay [3] is T2, LIGHT (TNFSF14), recombinant soluble …. Put plainly: direct binding ELISA on LIGHT. (An ELISA detects its analyte on a solid surface through an enzyme-linked reagent.)
For assay [4] the target is unchanged. Put plainly: competition ELISA: inhibition of LIGHT-biotin binding to HVEM-Fc captured by Protein A.
The target is the same in assay [5]. Put plainly: competition ELISA: inhibition of LIGHT-biotin binding to LTbR-Fc captured by Protein A.
The target is the same in assay [6]. The assay is described as follows: competition ELISA: inhibition of LIGHT-biotin binding to DcR3-Fc captured by Protein A.
Assay [7] has as its target T1, LIGHT expressed on the cell surface …. The assay is described as follows: flow cytometry on LIGHT transfected cells against vector control cells.

T2 sequence (O43557 83-240 limits assumed): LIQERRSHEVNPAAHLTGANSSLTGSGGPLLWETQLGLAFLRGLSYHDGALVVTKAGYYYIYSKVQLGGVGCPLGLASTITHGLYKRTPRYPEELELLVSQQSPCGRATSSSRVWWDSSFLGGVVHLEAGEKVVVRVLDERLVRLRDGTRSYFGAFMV
T1 sequence (O43557 whole entry): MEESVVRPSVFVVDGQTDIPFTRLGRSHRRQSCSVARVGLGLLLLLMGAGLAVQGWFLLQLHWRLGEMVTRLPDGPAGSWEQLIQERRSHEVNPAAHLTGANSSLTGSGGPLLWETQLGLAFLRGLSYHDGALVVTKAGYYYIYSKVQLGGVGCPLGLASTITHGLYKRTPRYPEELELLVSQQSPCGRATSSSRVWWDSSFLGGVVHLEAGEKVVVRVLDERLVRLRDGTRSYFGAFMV

B1: humanized 5E10 antibody (antibody, V domains shown)
VH: QVQLVQSGAEVKKPGASVKVSCKASGYTFTSYYIHWVRQAPGQRLEWMGWIFPGSDITKYNEKFKGRVTITRDTSASTAYMELSSLRSEDTAVYYCAREDYGISTYSAMDFWGQGTLVTVSS
VL: DIQLTQSPSFLSASVGDRVTITCKASQDVGTAVAWYQQKPGKAPKLLIYWASTRHTGVPSRFSGSGSGTEFTLTISSLQPEDFATYYCQQYSSYPLTFGQGTKVEIKR
notes: also called h5E10
B1: the binding result in assay [1] is “binds”.

B2: murine anti-LIGHT monoclonal antibody 10D11 (antibody, V domains shown)
VH: EIQLQQSGPDLVKPGASVKVSCKASGYSFTDYYIYWVRQSHGKSLEWIGYIDPYNGGTKYNQKFKDTASLTVDKSSSTAFMHLNSLTSEDSAVYYCARTSGSSWFPYWGQGTLVTVSA
VL: DIVLTQSPATLSVTPGDSVSLSCRASQSISNNLHWYQQKSHESPRLLIKYTYQSISGIPSRFSGSGSGTDFTLTINSVETEDFGMYFCQQSNRWPLTFGAGTKLELKR
notes: Mouse hybridoma monoclonal antibody; also called m10D11; mD10D11
What is called Kd is the equilibrium constant for the complex coming apart. By EC50 is commonly meant the concentration needed to bring the measured effect to its halfway point. In general, IC50 refers to the concentration that inhibits the measured activity by half. Regarding B2, the equilibrium dissociation constant (Kd) in assay [2] was determined as 0.045 nM. Besides, the EC50 in assay [3] amounted to 0.16 nM. In addition, the IC50 is 0.08 nM in assay [4], 0.0012 nM in assay [5] and 0.14 nM in assay [6]. The “MFC ratio (mean fluorescence on LIGHT transfected cells to vector control cells)” value in assay [7] worked out at 13.1 ratio.
